# From patent publication US20170081395A1 (LABRYS BIOLOGICS, published 2017)
# Ends that are not written are not given here.
# Target: T1, antibody G1 Fab fragment
# T1 construct: purified on Ni-NTA (tag not described); also called antibody G1 Fabs
# Experiment: Biacore, 10 uM peptide with 50 nM G1 Fab over human α-CGRP on chip
# T1 sequence (VH, as listed by the source, chain 1 of 2): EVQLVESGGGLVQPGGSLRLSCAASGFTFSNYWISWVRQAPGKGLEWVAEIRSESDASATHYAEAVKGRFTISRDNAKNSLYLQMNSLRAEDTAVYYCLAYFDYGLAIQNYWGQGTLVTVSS
# T1 sequence (VL, as listed by the source, chain 2 of 2): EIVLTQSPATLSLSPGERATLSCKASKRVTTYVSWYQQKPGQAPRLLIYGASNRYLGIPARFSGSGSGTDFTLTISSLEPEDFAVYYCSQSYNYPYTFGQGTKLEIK
row,Binder,% of binding blocked
1,SGGVVKNNFVPTNVGSAAF-NH2 (also: N-terminal biotin when captured on the chip) [human α-CGRP K35A (19-37)],100%
2,SGGVVKNNFVPTNVGSMAF-NH2 (also: N-terminal biotin when captured on the chip) [human α-CGRP K35M (19-37)],100%
3,SGGVVKNNFVATNVGSKAF-NH2 [human α-CGRP P29A (19-37)],100%
4,SGGVVKNNFVPTNVGSEAF-NH2 (also: N-terminal biotin when captured on the chip) [human α-CGRP K35E (19-37)],100%
5,"SCNTATCVTHRLAGLLSRSGGVVKDNFVPTNVGSEAF-NH2 (ends and bridges not checked; also: N-terminal biotin when captured on the chip, also called rat α (1-37); α-rat) [rat α-CGRP (1-37)]",100%
6,"ACDTATCVTHRLAGLLSRSGGVVKNNFVPTNVGSKA-OH (ends and bridges not checked, also called Peptide 1-36 (not amidated at the C-terminus)) [human α-CGRP 1-36-COOH]",~40%
